Target: T1, Strep2-POLR1G (human, UniProt O15446 1-510)
T1 construct: POLR1G (RNA polymerase I subunit G), human, cloned into pET45a-Strep2; also called Strep2-tagged POLR1G; source: TSsetta (DE3) bacteria, purified (anti-Strep2 tag agarose beads)
Experiment: pull-down; GST-PinX1 proteins on glutathione beads incubated with purified Strep2- or HA-tagged proteins in BC200 buffer (200 mM NaCl, 20 mM Tris-HCl pH 7.9, 20% glycerol, 0.2% NP-40) at 4 °C overnight; washed with BC500, BC200 or BC100; Western blot
Details: both partners purified

T1 sequence (O15446 whole entry): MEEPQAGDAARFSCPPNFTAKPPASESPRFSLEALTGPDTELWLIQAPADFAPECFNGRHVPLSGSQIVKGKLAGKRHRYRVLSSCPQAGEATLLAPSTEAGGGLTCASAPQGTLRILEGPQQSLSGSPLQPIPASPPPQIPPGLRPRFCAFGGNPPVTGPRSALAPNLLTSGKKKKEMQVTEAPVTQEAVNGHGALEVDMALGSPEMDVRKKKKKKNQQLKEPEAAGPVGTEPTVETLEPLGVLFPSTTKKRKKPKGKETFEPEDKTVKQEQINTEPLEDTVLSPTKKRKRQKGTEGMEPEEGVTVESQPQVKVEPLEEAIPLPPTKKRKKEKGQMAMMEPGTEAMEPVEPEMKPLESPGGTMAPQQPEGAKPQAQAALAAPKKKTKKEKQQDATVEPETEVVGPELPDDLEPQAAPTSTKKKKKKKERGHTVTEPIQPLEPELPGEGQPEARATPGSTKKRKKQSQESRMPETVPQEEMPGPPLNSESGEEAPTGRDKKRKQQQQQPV

binding result	Binder
binds	GST-PinX1 central section (aa 70–253) (domain or fragment, human, UniProt Q96BK5 70-253, looked up, the truncations were of GST-PinX1; also called GST-PinX1 truncation; source: TSsetta (DE3) bacteria, IPTG-induced, purified (Glutathione-Sepharose 4B)) TINNEDNWIAHQDDFNQLLAELNTCHGQETTDSSDKKEKKSFSLEEKSKISKNRVHYMKFTKGKDLSSRSKTDLDCIFGKRQSKKTPEGDASPSTPEENETTTTSAFTIQEYFAKRMAALKNKPQVPVPGSDISETQVERKRGKKRNKEATGKDVESYLQPKAKRHTEGKPERAEAQERVAKKK
binds	GST-PinX1 full-length (natural protein, human, UniProt Q96BK5 1-328, looked up, PinX1, human, full length, cloned into pGEX-4T-3; also called GST-PinX1 FL; full length GST-PinX1; source: TSsetta (DE3) bacteria, IPTG-induced, purified (Glutathione-Sepharose 4B)) MSMLAERRRKQKWAVDPQNTAWSNDDSKFGQRMLEKMGWSKGKGLGAQEQGATDHIKVQVKNNHLGLGATINNEDNWIAHQDDFNQLLAELNTCHGQETTDSSDKKEKKSFSLEEKSKISKNRVHYMKFTKGKDLSSRSKTDLDCIFGKRQSKKTPEGDASPSTPEENETTTTSAFTIQEYFAKRMAALKNKPQVPVPGSDISETQVERKRGKKRNKEATGKDVESYLQPKAKRHTEGKPERAEAQERVAKKKSAPAEEQLRGPCWDQSSKASAQDAGDHVQPPEGRDFTLKPKKRRGKKKLQKPVEIAEDATLEETLVKKKKKKDSK

Source: article PMC12329599, “Acetylation of microtubule-binding PinX1 orchestrates ribosome biogenesis to nutrient starvation via the RNA polymerase I preinitiation complex” (The Journal of Biological Chemistry, 2025)
